Laboratory results as given in patent publication US20200325220A1 (INSTITUTE FOR RESEARCH IN BIOMEDICINE, published 2020).

Experiments:
recombinant human GM-CSF [1] = biological target: T1, recombinant human GM-CSF (human, UniProt P04141 18-144); assay: SPR, GM-CSF on the chip
[2] = biological target: T2, type I recombinant human collagen (human, UniProt P02452 162-1218; P08123 80-1119); assay: SPR, GM-CSF on the chip, antibody then collagen
recombinant human GM-CSF [3] = biological target: T1, recombinant human GM-CSF; assay: ELISA, plate coated with GM-CSF
recombinant human GM-CSF [4] = biological target: T1, recombinant human GM-CSF; assay: SPR, GM-CSF on the chip, antibody then collagen
recombinant human GM-CSF [5] = biological target: T1, recombinant human GM-CSF; assay: SPR, antibody captured on protein A, GM-CSF then collagen
[6] = biological target: T2, type I recombinant human collagen; assay: as above

T1 sequence (P04141 18-144 limits assumed): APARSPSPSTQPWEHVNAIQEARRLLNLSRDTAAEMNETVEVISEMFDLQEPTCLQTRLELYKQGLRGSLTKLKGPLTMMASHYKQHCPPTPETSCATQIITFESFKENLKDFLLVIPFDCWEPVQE
T2 sequence (P02452 162-1218 limits assumed, chain 1 of 2): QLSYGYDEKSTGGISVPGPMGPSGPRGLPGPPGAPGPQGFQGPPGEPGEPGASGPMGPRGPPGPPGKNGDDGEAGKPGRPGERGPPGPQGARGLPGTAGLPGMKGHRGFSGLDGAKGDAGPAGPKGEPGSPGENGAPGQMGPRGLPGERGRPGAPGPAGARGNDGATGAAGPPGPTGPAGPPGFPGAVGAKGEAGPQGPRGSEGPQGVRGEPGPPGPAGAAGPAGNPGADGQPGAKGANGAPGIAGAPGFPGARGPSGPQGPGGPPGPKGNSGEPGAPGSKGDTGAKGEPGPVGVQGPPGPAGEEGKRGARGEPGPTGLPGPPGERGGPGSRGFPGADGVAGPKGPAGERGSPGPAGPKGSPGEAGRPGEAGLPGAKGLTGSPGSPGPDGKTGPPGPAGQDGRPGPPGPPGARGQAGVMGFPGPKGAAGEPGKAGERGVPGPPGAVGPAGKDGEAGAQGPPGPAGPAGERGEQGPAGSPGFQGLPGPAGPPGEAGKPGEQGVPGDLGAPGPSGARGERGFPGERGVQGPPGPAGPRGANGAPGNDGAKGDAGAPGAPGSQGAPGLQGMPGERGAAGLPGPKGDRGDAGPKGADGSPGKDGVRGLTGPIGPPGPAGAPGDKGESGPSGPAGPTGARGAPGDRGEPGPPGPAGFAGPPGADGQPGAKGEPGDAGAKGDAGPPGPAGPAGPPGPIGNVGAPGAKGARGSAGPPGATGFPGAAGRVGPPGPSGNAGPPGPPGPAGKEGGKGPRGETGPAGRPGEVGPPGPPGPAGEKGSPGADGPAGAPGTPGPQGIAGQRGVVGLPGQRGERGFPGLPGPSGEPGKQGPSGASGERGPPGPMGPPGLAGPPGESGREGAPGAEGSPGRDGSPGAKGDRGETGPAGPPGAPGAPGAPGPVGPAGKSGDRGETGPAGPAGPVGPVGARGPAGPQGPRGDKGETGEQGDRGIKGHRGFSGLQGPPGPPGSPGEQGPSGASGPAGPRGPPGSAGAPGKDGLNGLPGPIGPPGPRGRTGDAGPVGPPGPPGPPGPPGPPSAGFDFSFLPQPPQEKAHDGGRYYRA
T2 sequence (P08123 80-1119 limits assumed, chain 2 of 2): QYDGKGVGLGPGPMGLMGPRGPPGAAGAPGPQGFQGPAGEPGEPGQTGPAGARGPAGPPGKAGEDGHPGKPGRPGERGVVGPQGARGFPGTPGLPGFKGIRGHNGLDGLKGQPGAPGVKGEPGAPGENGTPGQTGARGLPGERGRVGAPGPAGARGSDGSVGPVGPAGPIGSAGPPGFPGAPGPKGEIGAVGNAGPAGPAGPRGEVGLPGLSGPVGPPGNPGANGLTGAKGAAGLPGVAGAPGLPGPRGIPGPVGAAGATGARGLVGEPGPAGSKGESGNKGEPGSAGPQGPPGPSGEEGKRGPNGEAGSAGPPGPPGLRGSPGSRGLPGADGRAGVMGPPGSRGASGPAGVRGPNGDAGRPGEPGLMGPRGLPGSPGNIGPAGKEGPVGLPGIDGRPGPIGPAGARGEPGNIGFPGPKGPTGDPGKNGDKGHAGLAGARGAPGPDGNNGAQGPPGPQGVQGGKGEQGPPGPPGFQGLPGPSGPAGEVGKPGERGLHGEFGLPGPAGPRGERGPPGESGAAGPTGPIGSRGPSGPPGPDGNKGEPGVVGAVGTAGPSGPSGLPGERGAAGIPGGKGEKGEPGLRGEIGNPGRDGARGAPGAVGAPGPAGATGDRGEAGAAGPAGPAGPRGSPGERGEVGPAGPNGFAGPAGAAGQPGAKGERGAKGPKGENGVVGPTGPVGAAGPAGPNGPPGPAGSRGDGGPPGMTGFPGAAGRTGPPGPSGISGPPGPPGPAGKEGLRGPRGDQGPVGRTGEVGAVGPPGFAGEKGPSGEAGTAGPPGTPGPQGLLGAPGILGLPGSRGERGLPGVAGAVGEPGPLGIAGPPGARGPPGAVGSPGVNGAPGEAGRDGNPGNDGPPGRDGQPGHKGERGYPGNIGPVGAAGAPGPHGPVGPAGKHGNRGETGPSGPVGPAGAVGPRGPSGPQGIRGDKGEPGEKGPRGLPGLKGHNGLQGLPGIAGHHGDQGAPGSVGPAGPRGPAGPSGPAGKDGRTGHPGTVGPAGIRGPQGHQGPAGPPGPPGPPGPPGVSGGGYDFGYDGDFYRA

B1: C4 (bispecific antibody, human IgG1, kappa)
heavy: not shown
light: EIVLTQSPGTLSLSPGETAILSCRASQSVSSSLLAWYQQKPGQAPRLLIYGASNRATGIRGRFSGSGSGTDFTLTISRLEPEDFVLYYCQHYGSRVTFGQGTKLEIKRTVAAPSVFIFPPSDEQLKSGTASVVCLLNNFYPREAKVQWKVDNALQSGNSQESVTEQDSKDSTYSLSSTLTLSKADYEKHKVYACEVTHQGLSSPVTKSFNRGEC
notes: also called construct C4; bispecific construct C4
Recombinant human GM-CSF [1]
  binding result: binds

B2: C5 (antibody, human IgG1, kappa)
heavy: not shown
light: B1 light
notes: also called construct C5
Recombinant human GM-CSF [1]
  binding result: binds

B3: GCE536 (antibody, human IgG1, kappa)
heavy: not shown
light: B1 light
notes: also called anti-GM-CSF antibody; scaffold antibody
Recombinant human GM-CSF [1]
  binding result: binds
[2]
  binding result: no binding (tested: collagen 50 nM)

B4: C5b (antibody, human IgG1, kappa)
heavy: not shown
light: B1 light
notes: also called construct C5b
Recombinant human GM-CSF [3]
  binding result: binds

B5: C6b (antibody, human IgG1, kappa)
heavy: not shown
light: B1 light
notes: also called construct C6b
Recombinant human GM-CSF [3]
  binding result: binds

B6: FI174 (antibody, V domains shown)
VH: QVQLVQSGAEVRKPGSSVKVSCKTSGGIIRKYALSWVRQAPGQGLEWMGGIIAIFGTTNYAQKFQGRVTINADESTSTVYLELSSLTSEDTAIYYCAGSATYYESRFDYWGQGTLVTVSS
VL: EIVLTQSPGTLSLSPGARATLSCRASQSVSSSSLAWYQQKPGQAPRLLIYDASSRATGIPDRFSGSGSGTDFTLTISRLEPEDFAVYYCHQYGDSRKTFGQGTKVEIKR
notes: also called F1174; FI74
Recombinant human GM-CSF [4]
  binding result: no binding (tested: antibody 10 nM)

B7: MGD^UCA (antibody, human IgG1, kappa)
heavy: not shown
light: AIRMTQSPSSFSASTGDRVTITCRASQGISSYLAWYQQKPGKAPKLLIYAASTLQSGVPSRFSGSGSGTDFTLTISCLQSEDFATYYCQQYYSYPPDFGQGTRLEIKRTVAAPSVFIFPPSDEQLKSGTASVVCLLNNFYPREAKVQWKVDNALQSGNSQESVTEQDSKDSTYSLSSTLTLSKADYEKHKVYACEVTHQGLSSPVTKSFNRGEC
notes: also called collagen-specific MGD^UCA antibody
Recombinant human GM-CSF [4]
  binding result: no binding (tested: antibody 10 nM)

B8: TT107 (antibody, V domains shown)
VH: QVQLIQSGGGLVKPGGSLRLSCAASGFTFSDYYMSWIRQVPGKGLEWISVISATTGYTDYADSVKGRFTISRDNAKNSVFLQMNSLRVDDMAVYYCAREVLGTAWFDYWGQGTLVTISS
VL: EIVLTQSPGTLSLSPGERATLSCRASQSVTSNYLAWYQQKPGQAPRLLIYGVSRRATGIPDRFSGSGSGTDFALTISRLEPEDFAVYYCQQYRSSPRTFGPGTKVEFKR
notes: also called TT-specific monoclonal antibody
Recombinant human GM-CSF [5]
  binding result: no binding (tested: GM-CSF 50 nM)
[6]
  binding result: no binding (tested: collagen 50 nM)
